In paper PMC7707817 one finds stoichiometry N and percent of ClpA crosslinked to ClpP data, which are given here for 2 substances.

For experiment [1], the target named is ClpP+C (E. coli ClpP C91V, C113A with a cysteine appended after Asn193) (E. coli). The experiment is described as follows: SEC; Superdex-200 of the quenched cross-linking reaction; 50 mM HEPES-KOH pH 7.5, 300 mM NaCl, 20 mM MgCl2, 10% glycerol, 2 mM TCEP; peak 2 = uncrosslinked ClpP+C.
Experiment [2] has the same target. The experiment is described as follows: cross-linking; E613CClpA‡ (4 µM) and ClpP+C (9.6 µM) mixed; 50 mM HEPES-KOH pH 7, 300 mM NaCl, 20 mM MgCl2, 10% glycerol, 5 mM EDTA; 5 mM ATPγS, 200 µM bismaleimidoethane (BMOE), room temperature, 45 min; quenched with 50 mM DTT; peak-1 pool of Superdex-200 SEC read by reducing SDS-PAGE (Coomassie).

The term stoichiometry N denotes the number of molecules, sites or subunits per partner or assembly. In turn, “ClpP+C (E. coli ClpP C91V, C113A with a cysteine appended after Asn193) (enzyme)” returned a stoichiometry N in experiment [1] of 14.
Substance “E613C ClpA‡ (E. coli ClpAΔC9 with C47S, C203S, C243S and E613C) (from UniProt P0ABH9 1-749) (enzyme)” registered a percent of ClpA crosslinked to ClpP in experiment [2] of 90%.
